The values below come from US20100261778, “Tumor Suppressor Killin” (published 2010).

In this data set the target is T1, Killin/N8-50 peptide (Homo sapiens, UniProt B2CW77 SEQ:8-49).
T1 chain: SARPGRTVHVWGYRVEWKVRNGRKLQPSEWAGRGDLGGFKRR
Kind of data set: EMSA; apparent Kd; 20 mM Tris-Cl pH 8.4, 25 mM KCl, 1.5 mM MgCl2, 100 ug/mL BSA, RT. Conditions: protein: synthetic, tags: chemically synthesized 42 aa peptide (Sigma-Genosys, at least 70% purity). The source says: After annealing, probes for artificial replication fork (LL and RL) or double-stranded DNA template (LL and RLM) were end-labeled with α-³²P-dATP (Perkin-Elmer) using Klenow (New England Biolab). Single-stranded oligonucleotide (LL) was end-labeled with […] (Perkin-Elmer) using T4 polynucleotide kinase (New England Biolab). After purifying with Sephadex-G50 spin columns (Roche), the labeled probes (200,000 CPM each) were mixed with an increasing amount of Killin/N8-50 peptide in the presence of 20 mM Tris-Cl (pH 8.4), 25 mM KCl, 1.5 mM MgCl₂ and 100 μg/mL of BSA. The reaction mixtures were incubated at RT for 30 min and separated on a 6% polyacrylamide gel with 1× TBE buffer. After drying the gel onto a Whatman No. 1 filter paper, the DNA-protein complexes were visualized by autoradiography. For binding kinetics, bands from DNA-peptide complex were excised and the radioactivity was determined by scintillation counting. To determine the stability of the DNA-Killin peptide complex, 0.5 μg of either double-stranded (RF form) or single-stranded (viral form) of PhiX174 bacterial phage DNA (New England Biolab) were incubated at room temperature for 30 min with 1 ug of Killin/N8-50 peptide in a 20 μL reaction. The samples were then resolved on a 0.8% TAE agarose gel and stained with ethidium bromide.
For orientation: Mobility shift assays separate free from complexed probe on a gel.

B1: LL single-stranded oligonucleotide (ssDNA)
DNA: TTTGCACGTCGGATCCGACCCAGACTACGGAGGCC
For B1, the Kd (label: 32P (T4 PNK)) was determined as 500 nM.

B2: LL/RL artificial replication fork (structured_DNA)
DNA 1: TTTGCACGTCGGATCCGACCCAGACTACGGAGGCC
DNA 2: CCGGAGGCATCAGACGGTCGGATCCGACGTGC
For B2, the Kd (label: 32P (Klenow fill-in), replication fork with unpaired arms) came out at 1000 nM.

B3: LL/RLM double-stranded DNA (dsDNA)
DNA 1: TTTGCACGTCGGATCCGACCCAGACTACGGAGGCC
DNA 2: GGCCTCCGTAGTCTGGGTCGGATCCGACGTGC
Turning to B3, the Kd (label: 32P (Klenow fill-in)) amounted to 1000 nM.
